This is an account of results in patent US20210388087A1 (Chugai, published 2021).

First the molecules themselves.
T1: Human CD3eg linker (human)
T1 construct: Single chain: epsilon and gamma subunits of human CD3 joined by a 29-mer linker, Flag-tag at the C-terminus; also called recombinant human CD3
T1 chain: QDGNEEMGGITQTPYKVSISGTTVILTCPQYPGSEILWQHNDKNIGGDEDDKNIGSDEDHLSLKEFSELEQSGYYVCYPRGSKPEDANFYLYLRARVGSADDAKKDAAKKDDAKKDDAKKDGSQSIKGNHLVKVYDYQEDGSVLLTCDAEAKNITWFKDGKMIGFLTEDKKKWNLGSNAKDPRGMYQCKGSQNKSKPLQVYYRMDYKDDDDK

B1: H183/L072 VH K52A (antibody, name in Kabat numbering, V domains shown)
VH: QVQLVESGGGLVQPGRSLRLSCAASGFTFSNAWMHWVRQAPGKGLEWVAQIADKGNAYAAYYAPSVKGRFTISRDDSKNSIYLQMNSLKTEDTAVYYCHYVHYASASTVLPAFGVDAWGQGTTVTVSS
VL: DIVMTQSPLSLPVTPGEPASISCQASQELVHMNRNTYLHWYQQKPGQAPRLLIYKVSNRFPGVPDRFSGSGSGTDFTLKISRVEAEDVGVYYCAQGTSVPFTFGQGTKLEIK
B2: H183/L072 VH K52G (antibody, name in Kabat numbering, V domains shown)
VH: QVQLVESGGGLVQPGRSLRLSCAASGFTFSNAWMHWVRQAPGKGLEWVAQIGDKGNAYAAYYAPSVKGRFTISRDDSKNSIYLQMNSLKTEDTAVYYCHYVHYASASTVLPAFGVDAWGQGTTVTVSS
VL: DIVMTQSPLSLPVTPGEPASISCQASQELVHMNRNTYLHWYQQKPGQAPRLLIYKVSNRFPGVPDRFSGSGSGTDFTLKISRVEAEDVGVYYCAQGTSVPFTFGQGTKLEIK
B3: H183/L072 VH K52H (antibody, name in Kabat numbering, V domains shown)
VH: QVQLVESGGGLVQPGRSLRLSCAASGFTFSNAWMHWVRQAPGKGLEWVAQIHDKGNAYAAYYAPSVKGRFTISRDDSKNSIYLQMNSLKTEDTAVYYCHYVHYASASTVLPAFGVDAWGQGTTVTVSS
VL: DIVMTQSPLSLPVTPGEPASISCQASQELVHMNRNTYLHWYQQKPGQAPRLLIYKVSNRFPGVPDRFSGSGSGTDFTLKISRVEAEDVGVYYCAQGTSVPFTFGQGTKLEIK
B4: H183/L072 VH K52E (antibody, name in Kabat numbering, V domains shown)
VH: QVQLVESGGGLVQPGRSLRLSCAASGFTFSNAWMHWVRQAPGKGLEWVAQIEDKGNAYAAYYAPSVKGRFTISRDDSKNSIYLQMNSLKTEDTAVYYCHYVHYASASTVLPAFGVDAWGQGTTVTVSS
VL: DIVMTQSPLSLPVTPGEPASISCQASQELVHMNRNTYLHWYQQKPGQAPRLLIYKVSNRFPGVPDRFSGSGSGTDFTLKISRVEAEDVGVYYCAQGTSVPFTFGQGTKLEIK
B5: H183/L072 VH K52F (antibody, name in Kabat numbering, V domains shown)
VH: QVQLVESGGGLVQPGRSLRLSCAASGFTFSNAWMHWVRQAPGKGLEWVAQIFDKGNAYAAYYAPSVKGRFTISRDDSKNSIYLQMNSLKTEDTAVYYCHYVHYASASTVLPAFGVDAWGQGTTVTVSS
VL: DIVMTQSPLSLPVTPGEPASISCQASQELVHMNRNTYLHWYQQKPGQAPRLLIYKVSNRFPGVPDRFSGSGSGTDFTLKISRVEAEDVGVYYCAQGTSVPFTFGQGTKLEIK
B6: H183/L072 VH K52I (antibody, name in Kabat numbering, V domains shown)
VH: QVQLVESGGGLVQPGRSLRLSCAASGFTFSNAWMHWVRQAPGKGLEWVAQIIDKGNAYAAYYAPSVKGRFTISRDDSKNSIYLQMNSLKTEDTAVYYCHYVHYASASTVLPAFGVDAWGQGTTVTVSS
VL: DIVMTQSPLSLPVTPGEPASISCQASQELVHMNRNTYLHWYQQKPGQAPRLLIYKVSNRFPGVPDRFSGSGSGTDFTLKISRVEAEDVGVYYCAQGTSVPFTFGQGTKLEIK
B7: H183/L072 VH K52L (antibody, name in Kabat numbering, V domains shown)
VH: QVQLVESGGGLVQPGRSLRLSCAASGFTFSNAWMHWVRQAPGKGLEWVAQILDKGNAYAAYYAPSVKGRFTISRDDSKNSIYLQMNSLKTEDTAVYYCHYVHYASASTVLPAFGVDAWGQGTTVTVSS
VL: DIVMTQSPLSLPVTPGEPASISCQASQELVHMNRNTYLHWYQQKPGQAPRLLIYKVSNRFPGVPDRFSGSGSGTDFTLKISRVEAEDVGVYYCAQGTSVPFTFGQGTKLEIK
B8: H183/L072 VH K52D (antibody, name in Kabat numbering, V domains shown)
VH: QVQLVESGGGLVQPGRSLRLSCAASGFTFSNAWMHWVRQAPGKGLEWVAQIDDKGNAYAAYYAPSVKGRFTISRDDSKNSIYLQMNSLKTEDTAVYYCHYVHYASASTVLPAFGVDAWGQGTTVTVSS
VL: DIVMTQSPLSLPVTPGEPASISCQASQELVHMNRNTYLHWYQQKPGQAPRLLIYKVSNRFPGVPDRFSGSGSGTDFTLKISRVEAEDVGVYYCAQGTSVPFTFGQGTKLEIK

The target of the assay is T1, Human CD3eg linker. Nature of the assay: Biacore SPR, vs template H183/L072. For orientation: Surface plasmon resonance follows binding to a sensor surface in real time, without labels.
For B1, the “fold change of affinity” value worked out at 0 fold. As for B2, the figure is 0 fold; as for B3, 0 fold.

Take B4: the “fold change of affinity” value worked out at 0 fold. B5: the “fold change of affinity” value was determined as 0 fold. As for B6, the figure is 0 fold; as for B7, 0 fold. As to B8, the “fold change of affinity” value is 0 fold.
